In assay [1] the target is human 4-1BB (human) (UniProt Q07011). The experiment in a line: FACS; panel C. (In general: A flow cytometer gives signals particle by particle.)
The target is the same in assay [2]. Put plainly: FACS; panel A.
In assay [3] the target is CHO-K1/hu OX40 (human) (UniProt P43489). Put plainly: FACS.
CHO-K1/hu OX40 (human), sequence (P43489 29-277): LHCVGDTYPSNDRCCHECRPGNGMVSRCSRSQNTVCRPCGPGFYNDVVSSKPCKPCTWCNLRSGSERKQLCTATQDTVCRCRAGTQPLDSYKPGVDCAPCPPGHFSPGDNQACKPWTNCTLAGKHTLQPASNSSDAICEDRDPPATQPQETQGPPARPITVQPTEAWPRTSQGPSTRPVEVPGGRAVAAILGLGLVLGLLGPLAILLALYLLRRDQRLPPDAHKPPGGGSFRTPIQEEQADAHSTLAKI

human 4-1BB (human), sequence (Q07011 24-255): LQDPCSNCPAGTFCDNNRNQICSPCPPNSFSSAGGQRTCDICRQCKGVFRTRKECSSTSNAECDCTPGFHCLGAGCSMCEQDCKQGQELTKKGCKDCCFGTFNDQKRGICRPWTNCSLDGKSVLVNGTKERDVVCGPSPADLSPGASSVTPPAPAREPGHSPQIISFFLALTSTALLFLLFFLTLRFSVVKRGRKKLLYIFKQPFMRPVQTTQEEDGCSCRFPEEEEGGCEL

One may read the EC50 as the concentration giving half of the maximal effect. A high value points to a less potent agent. In the case of “Anti-4-1BB monoclonal antibody Urelumab analog (hIgG4)”, the figures for the concentration giving a half-maximal response (EC50) in assay [1] and in assay [2] were 1.01 nM and 0.347 nM, respectively.

Consider Pogalizumab, for which, in assay [3], the EC50 is 1.15 nM.

Source of the values: US20230287143A1.
